# Source: publication PMC13376213, “Systematic discovery of motif-based interactions of the auxiliary domains of USP family deubiquitinases” (Nature Communications, 2026)
# Experiments:
# FLAG-USP33 = experiment: IP-MS of FLAG-USP33 and variants vs empty vector; type: cell-based, human
# Description: For transfection, 1x10^6 HEK293 cells were seeded in 10 cm dishes with DMEM, 10% FBS, 1% L-G (without antibiotic) medium, incubated at 37 °C, with 5 % CO2 for 24 h. Cells were transfected with a transfection mix containing […] of Opti-MEM (Thermo Fisher Scientific), 20 μL of PEI stock (1 mg/mL) and […] of the desired cDNA. For co-transfection, 2.5 μg of DNA of each plasmid was used. The mix was vortexed for 15 s and incubated at room temperature for 15–20 min. The transfection mix was added to the dish and gently mixed. Plates were incubated at 37 °C for 36–48 h before harvesting. For USP33 constructs, 5 μM Bortezomib (proteasome inhibitor) was added 4 hours before harvesting the cells.
# FLAG fusion proteins were immunoprecipitated from HEK293 cells transfected with plasmids encoding the protein of interest using the anti-FLAG M2 affinity gel from Sigma-Aldrich. Cell pellets were lysed with 100–200 μL/per dish lysis buffer (Pierce RIPA buffer, 1X protease inhibitor (Roche), 50 unit/μL of Benzonase Nuclease) rotating at 4 °C for 30–45 min. […] The cell lysate was clarified by centrifugation at 17,000 x g, at 4 °C for 12 min, and the supernatant was transferred to a clean, pre-chilled low-binding Eppendorf tube. […] The IP samples were centrifuged at 6500 x g at 4 °C for 30 s. The supernatant containing the unbound proteins was transferred to a clean tube. The resin was washed three times with 500 μL of TBS, centrifuged at 6500 x g at 4 °C for 30 s. The bound FLAG fusion protein was eluted with 100 μL of 150 ng/μL 3X FLAG peptide (Sigma) in TBS and incubated in the cold room for 1 h or overnight. The tube was centrifuged at 6500 x g at 4 °C for 30 s; the eluted proteins were transferred to a clean tube. The eluted proteins were prepared for analysis by western blot or Mass Spectrometry.
# Immunoprecipitation (IP) was carried out as described above; four technical replicates of each IP condition were performed, and the empty vector was used as a negative control. The eluted protein was processed following the Strap-micro protocol (Protifi). The IP elution containing 1–100 μg protein was 1:1 mixed with 2X lysis buffer (10% SDS, 100 mM TEAB pH 8.5). […] Samples were vortexed, mixed with 165 μL of 100 mM TEAB in 90% methanol, and passed through an S-Trap micro column at 4000 g for 30 s to trap the proteins. The column was washed with 150 μL of 100 mM TEAB in 90% methanol (at 4,000 x g for 30 seconds) three times. The S-Trap column was centrifuged again and transferred to a clean 2 mL tube for digestion with 20 μL of digestion buffer (1 μg trypsin per 10 μg sample in 50 mM TEAB), at 37 °C overnight in a thermomixer without shaking. The digested peptides were eluted with […] of 50 mM TEAB in water, […] of 0.2 % formic acid in water, and […] of 50 % acetonitrile in water, centrifuging at 4000 x g for 1 min each time. The three elutions were pooled in a low-binding tube, placed on dry ice until frozen, dried in a SpeedVac vacuum (Thermo Scientific), and proceeded with the LCMS analysis.
# Eluted peptides were resuspended in water supplemented with 0.015% dodecyl maltoside and 0.1% formic acid and were injected on a Vanquish Neo UHPLC System operating in trap and elute mode coupled to an Orbitrap Astral Mass Spectrometer (Thermo Fisher Scientific). […] Eluted peptides were analyzed using data-independent acquisition mode on the mass spectrometer.
# Peptides were searched against the Uniprot Swissprot Human database (released on 02/01/2023) supplemented with the USP20 and USP33 mutants using DiaNN (v1.9.0)[62] operating in library-free mode. Data filtering and statistical analysis were carried out in Python (v3.9.0) using the packages pandas, numpy, sklearn, scipy, rpy2, Plotnine, and Plotly and R (v4.4.3) using the package limma.
# Protein groups identified with a single peptide or quantified in fewer than three replicates in at least 1 condition were filtered out. […]
# FLAG-USP20 = experiment: IP-MS of FLAG-USP20 and variants vs empty vector; type: cell-based, human
# Description: For transfection, 1x10^6 HEK293 cells were seeded in 10 cm dishes with DMEM, 10% FBS, 1% L-G (without antibiotic) medium, incubated at 37 °C, with 5 % CO2 for 24 h. Cells were transfected with a transfection mix containing 970 mL of Opti-MEM (Thermo Fisher Scientific), 20 μL of PEI stock (1 mg/mL) and 5 mg of the desired cDNA. For co-transfection, 2.5 μg of DNA of each plasmid was used. The mix was vortexed for 15 s and incubated at room temperature for 15–20 min. The transfection mix was added to the dish and gently mixed. Plates were incubated at 37 °C for 36–48 h before harvesting. For USP33 constructs, 5 μM Bortezomib (proteasome inhibitor) was added 4 hours before harvesting the cells.
# FLAG fusion proteins were immunoprecipitated from HEK293 cells transfected with plasmids encoding the protein of interest using the anti-FLAG M2 affinity gel from Sigma-Aldrich. […] The cell lysate was clarified by centrifugation at 17,000 x g, at 4 °C for 12 min, and the supernatant was transferred to a clean, pre-chilled low-binding Eppendorf tube. […] The IP samples were centrifuged at 6500 x g at 4 °C for 30 s. The supernatant containing the unbound proteins was transferred to a clean tube. The resin was washed three times with 500 μL of TBS, centrifuged at 6500 x g at 4 °C for 30 s. The bound FLAG fusion protein was eluted with 100 μL of 150 ng/μL 3X FLAG peptide (Sigma) in TBS and incubated in the cold room for 1 h or overnight. The tube was centrifuged at 6500 x g at 4 °C for 30 s; the eluted proteins were transferred to a clean tube. The eluted proteins were prepared for analysis by western blot or Mass Spectrometry.
# Immunoprecipitation (IP) was carried out as described above; four technical replicates of each IP condition were performed, and the empty vector was used as a negative control. The eluted protein was processed following the Strap-micro protocol (Protifi). The IP elution containing 1–100 μg protein was 1:1 mixed with 2X lysis buffer (10% SDS, 100 mM TEAB pH 8.5). […] Samples were vortexed, mixed with 165 μL of 100 mM TEAB in 90% methanol, and passed through an S-Trap micro column at 4000 g for 30 s to trap the proteins. The column was washed with 150 μL of 100 mM TEAB in 90% methanol (at 4,000 x g for 30 seconds) three times. The S-Trap column was centrifuged again and transferred to a clean 2 mL tube for digestion with 20 μL of digestion buffer (1 μg trypsin per 10 μg sample in 50 mM TEAB), at 37 °C overnight in a thermomixer without shaking. The digested peptides were eluted with 40 mL of 50 mM TEAB in water, 40 mL of 0.2 % formic acid in water, and 40 mL of 50 % acetonitrile in water, centrifuging at 4000 x g for 1 min each time. The three elutions were pooled in a low-binding tube, placed on dry ice until frozen, dried in a SpeedVac vacuum (Thermo Scientific), and proceeded with the LCMS analysis.
# Protein groups identified with a single peptide or quantified in fewer than three replicates in at least 1 condition were filtered out. Protein group intensities were median normalized and missing values were imputed using a Gaussian distribution centered on the median with a downshift of 1.8 and width of 0.3 (relative to the standard deviation).
# [1] = IP-MS, FLAG-USP33-ΔDUSP2 vs EV, comparison bh_2 Sample_Limma_ImpMedInt_USP33_DUSP2_domain/EV
# [2] = IP-MS, FLAG-USP33-ΔUBP vs EV, comparison bh_2 Sample_Limma_ImpMedInt_USP33_UBP_domain/EV
# [3] = IP-MS, FLAG-USP33 UBP mutant vs EV, comparison USP33_E86K_D90R/EV, Limma
# [4] = IP-MS, FLAG-USP20-ΔUBP vs EV, comparison bh_2 Sample_Limma_ImpMedInt_USP20_UBP_domain/EV
# [5] = IP-MS, FLAG-USP20 vs EV, comparison USP20_wt/EV, Limma
# [6] = Table S7b USP20 MS_and_motif, bait USP20
molecule,measurement,setting,value
"IFT56 (protein, UniProt A0AVF1 1-554, looked up) Intraflagellar transport …: MMLSRAKPAVGRGVQHTDKRKKKGRKIPKLEELLSKRDFTGAITLLEFKRHVGEEEEDTNLWIGYCAFHLGDYKRALEEYENATKEENCNSEVWVNLACTYFFLGMYKQAEAAGFKASKSRLQNRLLFHLAHKFNDEKKLMSFHQNLQDVTEDQLSLASIHYMRSHYQEAIDIYKRILLDNREYLALNVYVALCYYKLDYYDVSQEVLAVYLQQIPDSTIALNLKACNHFRLYNGRAAEAELKSLMDNASSSFEFAKELIRHNLVVFRGGEGALQVLPPLVDVIPEARLNLVIYYLRQDDVQEAYNLIKDLEPTTPQEYILKGVVNAALGQEMGSRDHMKIAQQFFQLVGGSASECDTIPGRQCMASCFFLLKQFDDVLIYLNSFKSYFYNDDIFNFNYAQAKAATGNTSEGEEAFLLIQSEKMKNDYIYLSWLARCYIMNKKPRLAWELYLKMETSGESFSLLQLIANDCYKMGQFYYSAKAFDVLERLDPNPEYWEGKRGACVGIFQMIIAGREPKETLREVLHLLRSTGNTQVEYMIRIMKKWAKENRVSI",log2_FC,FLAG-USP33; [1],3.226
same,log2_FC,FLAG-USP33; [2],2.888
"BCLAF3 (protein, UniProt A2AJT9 1-711, looked up) BCLAF1 and THRAP3 family …: MARSRSRSPRWKHRSLSPVPRNAEHYKQRHSHGHYGCEYRKDPKRPVAWRMDSEKHGQSKPRIPSRGNIYYQSYEHRSPSPNIRNSLENVYMYKPHRGYSPGRGDSNRRAQYMPKYSEGIPYKEHERNSYPQKVQGGHSPDDHRVRGSGKGGKPPQRSIADSFRFEGKWHEDELRHQRIQEEKYSQSTRRGSEDFETRSSFQKRYPEDRDFRKYGHTSKRPKDVERYESREPARNPKWKPEHSLPPYQEDTDQWNLGPQTYRHAEREHPETSSATKVSYDYRHKRPKLLDGDQDFSDGRTQKYCKEEDRKYSFQKGPLNRELDCFNTGRGRETQDGQVKEPFKPSKKDSIACTYSNKNDVDLRSSNDKWKEKIKKEGDCRKESNSSSNQLDKSQKLPDVKPSPINLRKKSLTVKVDVKKTVDTFRVASSYSTERQMSHDLVAVGRKSENFHPVFEHLDSTQNTENKPTGEFAQEIITIIHQVKANYFPSPGITLHERFSTMQDIHKADVNEIPLNSDPEIHRRIDMSLAELQSKQAVIYESEQTLIKIIDPNDLRHDIERRRKERLQNEDEHIFHIASAAERDDQNSSFSKVKNVHTDGFQKPTHFIKSNFRKCIEKPYMNYTTQRKDIITHKPFEVEGNHRNTRVRPFKSNFRGGRCQPNYKSGLVQKSLYIQAKYQRLRFTGPRGFITHKFRERLMRKKKEYTDVATGI",log2_FC,FLAG-USP33; [3],4.934
same,log2_FC,FLAG-USP20; [4],4.725
same,log2_FC,FLAG-USP20; [5],4.955
same,log2_FC,FLAG-USP20; [6],4.955
"TMEM223 (protein, UniProt A0PJW6 1-202, looked up) Transmembrane protein 223: MAAPWRRWPTGLLAVLRPLLTCRPLQGTTLQRDVLLFEHDRGRFFTILGLFCAGQGVFWASMAVAAVSRPPVPVQPLDAEVPNRGPFDLRSALWRYGLAVGCGAIGALVLGAGLLFSLRSVRSVVLRAGGQQVTLTTHAPFGLGAHFTVPLKQVSCMAHRGEVPAMLPLKVKGRRFYFLLDKTGHFPNTKLFDNTVGAYRSL",log2_FC,FLAG-USP33; [1],4.626
same,log2_FC,FLAG-USP33; [2],4.59
same,log2_FC,FLAG-USP33; [3],4.422
same,log2_FC,"FLAG-USP33; IP-MS, FLAG-USP33 vs EV, comparison USP33_wt/EV, Limma",4.38
same,log2_FC,"FLAG-USP33; Table S7c USP33 MS_and_motif, bait USP33",4.38
same,log2_FC,FLAG-USP20; [4],4.865
same,log2_FC,FLAG-USP20; [5],4.082
same,log2_FC,FLAG-USP20; [6],4.082
"GTPBP10 (protein, UniProt A4D1E9 1-387, looked up) GTP-binding protein 10: MVHCSCVLFRKYGNFIDKLRLFTRGGSGGMGYPRLGGEGGKGGDVWVVAQNRMTLKQLKDRYPRKRFVAGVGANSKISALKGSKGKDCEIPVPVGISVTDENGKIIGELNKENDRILVAQGGLGGKLLTNFLPLKGQKRIIHLDLKLIADVGLVGFPNAGKSSLLSCVSHAKPAIADYAFTTLKPELGKIMYSDFKQISVADLPGLIEGAHMNKGMGHKFLKHIERTRQLLFVVDISGFQLSSHTQYRTAFETIILLTKELELYKEELQTKPALLAVNKMDLPDAQDKFHELMSQLQNPKDFLHLFEKNMIPERTVEFQHIIPISAVTGEGIEELKNCIRKSLDEQANQENDALHKKQLLNLWISDTMSSTEPPSKHAVTTSKMDII",log2_FC,FLAG-USP33; [2],2.53
"BLTP3B (protein, UniProt A0JNW5 1-1464, looked up) Bridge-like lipid transfer …: MAGIIKKQILKHLSRFTKNLSPDKINLSTLKGEGELKNLELDEEVLQNMLDLPTWLAINKVFCNKASIRIPWTKLKTHPICLSLDKVIMEMSTCEEPRSPNGPSPIATASGQSEYGFAEKVVEGISVSVNSIVIRIGAKAFNASFELSQLRIYSVNAHWEHGDLRFTRIQDPQRGEVLTFKEINWQMIRIEADATQSSHLEIMCAPVRLITNQSKIRVTLKRRLKDCNVIATKLVLILDDLLWVLTDSQLKAMVQYAKSLSEAIEKSTEQRKSMAPEPTQSSTVVASAQQVKTTQTSNAPDVNDAIVKLFNDFDVKETSHHLVISHLDLHICDDIHAKEKESNRRITGGAMQLSFTQLTIDYYPYHKAGDSCNHWMYFSDATKTKNGWANELLHEFECNVEMLKQAVKDHNVGSPPKSPTHASPQHTQTEKDYPLKGTCRTPSVLSQQSKAKLMSSSVVVRLADFNIYQVSTAEQCRSSPKSMICCNKKSLYLPQEMSAVYIEFTEYYYPDGKDFPIPSPNLYSQLNALQFTVDERSILWLNQFLLDLKQSLNQFMAVYKLNDNSKSDEHVDVRVDGLMLKFVIPSEVKSECHQDQPRAISIQSSEMIATNTRHCPNCRHSDLEALFQDFKDCDFFSKTYTSFPKSCDNFNLLHPIFQRHAHEQDTKMHEIYKGNITPQLNKNTLKTSAATDVWAVYFSQFWIDYEGMKSGKGRPISFVDSFPLSIWICQPTRYAESQKEPQTCNQVSLNTSQSESSDLAGRLKRKKLLKEYYSTESEPLTNGGQKPSSSDTFFRFSPSSSEADIHLLVHVHKHVSMQINHYQYLLLLFLHESLILLSENLRKDVEAVTGSPASQTSICIGILLRSAELALLLHPVDQANTLKSPVSESVSPVVPDYLPTENGDFLSSKRKQISRDINRIRSVTVNHMSDNRSMSVDLSHIPLKDPLLFKSASDTNLQKGISFMDYLSDKHLGKISEDESSGLVYKSGSGEIGSETSDKKDSFYTDSSSILNYREDSNILSFDSDGNQNILSSTLTSKGNETIESIFKAEDLLPEAASLSENLDISKEETPPVRTLKSQSSLSGKPKERCPPNLAPLCVSYKNMKRSSSQMSLDTISLDSMILEEQLLESDGSDSHMFLEKGNKKNSTTNYRGTAESVNAGANLQNYGETSPDAISTNSEGAQENHDDLMSVVVFKITGVNGEIDIRGEDTEICLQVNQVTPDQLGNISLRHYLCNRPVGSDQKAVIHSKSSPEISLRFESGPGAVIHSLLAEKNGFLQCHIENFSTEFLTSSLMNIQHFLEDETVATVMPMKIQVSNTKINLKDDSPRSSTVSLEPAPVTVHIDHLVVERSDDGSFHIRDSHMLNTGNDLKENVKSDSVLLTSGKYDLKKQRSVTQATQTSPGVPWPSQSANFPEFSFDFTREQLMEENESLKQELAKAKMALAEAHLEKDALLHHIKKMTVE",log2_FC,FLAG-USP33; [3],2.646
